The source of these data is patent publication US20220119552A1.

Test [1] has as its target CD3 on human T cells (human) (UniProt P07766). The test is described as follows: flow cytometry on T cells coated with 1 µg/mL antibody. (In flow cytometry, cells or beads pass a laser one at a time.)
The target of test [2] is Carcinoembryonic antigen (CEA) on CEA positive cells (UniProt P06731). Nature of the test: cell-based or functional assay.
UniProt P06731, sequence (P06731 35-702): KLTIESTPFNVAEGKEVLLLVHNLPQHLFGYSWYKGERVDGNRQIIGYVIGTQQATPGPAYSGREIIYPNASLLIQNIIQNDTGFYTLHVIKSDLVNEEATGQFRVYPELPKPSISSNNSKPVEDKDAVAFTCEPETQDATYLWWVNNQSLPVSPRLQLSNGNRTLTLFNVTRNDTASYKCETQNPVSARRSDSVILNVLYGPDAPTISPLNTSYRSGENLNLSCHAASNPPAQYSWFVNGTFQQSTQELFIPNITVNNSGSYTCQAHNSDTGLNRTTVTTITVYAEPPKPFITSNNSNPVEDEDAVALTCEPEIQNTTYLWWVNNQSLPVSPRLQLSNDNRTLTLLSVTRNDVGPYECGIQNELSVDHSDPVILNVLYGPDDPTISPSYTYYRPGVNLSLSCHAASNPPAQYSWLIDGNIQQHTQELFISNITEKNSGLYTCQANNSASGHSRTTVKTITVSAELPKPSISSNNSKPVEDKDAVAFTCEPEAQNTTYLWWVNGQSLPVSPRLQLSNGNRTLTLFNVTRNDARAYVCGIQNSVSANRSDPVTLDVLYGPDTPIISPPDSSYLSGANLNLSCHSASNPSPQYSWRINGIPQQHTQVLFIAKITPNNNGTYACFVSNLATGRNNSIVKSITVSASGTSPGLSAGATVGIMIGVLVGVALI

UniProt P07766, sequence (P07766 23-207, chain 1 of 3): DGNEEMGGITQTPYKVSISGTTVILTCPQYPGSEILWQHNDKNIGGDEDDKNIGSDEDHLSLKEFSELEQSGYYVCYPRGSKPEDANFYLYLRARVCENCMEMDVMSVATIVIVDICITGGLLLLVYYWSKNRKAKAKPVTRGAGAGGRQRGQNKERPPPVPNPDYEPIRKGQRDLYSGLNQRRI
UniProt P07766, sequence (P04234 22-171, chain 2 of 3, further chain): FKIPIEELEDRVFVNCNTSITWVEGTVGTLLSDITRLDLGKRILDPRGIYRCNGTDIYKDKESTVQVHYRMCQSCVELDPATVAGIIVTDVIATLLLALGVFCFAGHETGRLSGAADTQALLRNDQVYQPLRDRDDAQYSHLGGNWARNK
UniProt P07766, sequence (P09693 23-182, chain 3 of 3, further chain): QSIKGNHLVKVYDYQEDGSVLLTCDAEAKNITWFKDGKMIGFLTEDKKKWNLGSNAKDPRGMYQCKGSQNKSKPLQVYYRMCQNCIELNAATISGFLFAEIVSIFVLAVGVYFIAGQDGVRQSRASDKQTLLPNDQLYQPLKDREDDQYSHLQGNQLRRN

For the substance “DBCO-hOKT3 (humanized anti-human CD3 antibody hOKT3 conjugated to DBCO)”, the percent of cells labelled in test [1] was above 90%. In test [2], “dbBiTE (dual specific bivalent bispecific T-cell engaging antibody: DBCO-hOKT3 clicked to azide-M5A) (bispecific antibody)” displayed a redirected cell lysis, T-cells coated with preformed dbBiTEs, E:T 10:1 of 90% and a redirected cell lysis, on-cell (in situ) generated dbBiTE coated T-cells, E:T 10:1 of 60%.
